Results as given in PMC8200006.

Biological target: purified pig brain plasma membrane Ca2+-ATPase (PMCA) (pig) (UniProt P23220)
Sequence of UniProt P23220 (P23220 whole entry): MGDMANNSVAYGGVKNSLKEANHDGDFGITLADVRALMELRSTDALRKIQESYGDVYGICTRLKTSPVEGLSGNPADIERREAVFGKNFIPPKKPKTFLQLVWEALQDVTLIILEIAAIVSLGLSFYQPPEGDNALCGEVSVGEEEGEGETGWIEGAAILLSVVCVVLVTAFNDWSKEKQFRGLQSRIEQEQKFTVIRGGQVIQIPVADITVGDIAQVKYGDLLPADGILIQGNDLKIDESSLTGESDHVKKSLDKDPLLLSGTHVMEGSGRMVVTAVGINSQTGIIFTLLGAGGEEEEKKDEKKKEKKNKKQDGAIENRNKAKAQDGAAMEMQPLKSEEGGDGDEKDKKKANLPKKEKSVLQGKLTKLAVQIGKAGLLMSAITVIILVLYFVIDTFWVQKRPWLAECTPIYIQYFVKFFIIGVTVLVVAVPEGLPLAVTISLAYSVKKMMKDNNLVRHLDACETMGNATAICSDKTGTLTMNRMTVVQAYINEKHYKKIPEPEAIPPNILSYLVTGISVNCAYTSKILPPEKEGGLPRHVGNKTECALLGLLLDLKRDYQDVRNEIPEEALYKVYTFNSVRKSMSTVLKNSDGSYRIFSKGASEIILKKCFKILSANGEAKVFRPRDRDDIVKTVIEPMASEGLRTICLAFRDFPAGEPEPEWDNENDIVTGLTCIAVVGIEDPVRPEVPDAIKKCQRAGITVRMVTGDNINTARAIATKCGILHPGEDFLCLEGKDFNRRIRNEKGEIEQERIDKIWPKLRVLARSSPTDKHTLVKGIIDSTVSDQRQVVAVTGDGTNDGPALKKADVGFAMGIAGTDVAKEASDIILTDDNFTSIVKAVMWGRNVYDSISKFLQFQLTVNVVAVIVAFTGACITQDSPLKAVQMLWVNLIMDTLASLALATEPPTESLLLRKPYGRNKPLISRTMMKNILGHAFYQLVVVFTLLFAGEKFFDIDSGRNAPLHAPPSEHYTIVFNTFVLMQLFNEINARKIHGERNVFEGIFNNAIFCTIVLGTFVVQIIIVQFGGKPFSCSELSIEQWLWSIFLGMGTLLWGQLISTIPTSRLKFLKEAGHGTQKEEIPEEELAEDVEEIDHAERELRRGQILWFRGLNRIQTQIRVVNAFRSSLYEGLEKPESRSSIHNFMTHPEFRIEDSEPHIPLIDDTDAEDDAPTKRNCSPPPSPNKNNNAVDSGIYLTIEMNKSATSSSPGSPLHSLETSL

B1: Recombinant Human SRI (sorcin), soluble resistance-related calcium-binding protein (natural protein)
chain: MAYPGHPGAGGGYYPGGYGGAPGGPAFPGQTQDPLYGYFAAVAGQDGQIDADELQRCLTQSGIAGGYKPFNLETCRLMVSMLDRDMSGTMGFNEFKELWAVLNGWRQHFISFDTDRSGTVDPQELQKALTTMGFRLSPQAVNSIAKRYSTNGKITFDDYIACCVKLRALTDSFRRRDTAQQGVVNFPYDDFIQCVMSV
Work on B1 yielded a Ca2+-ATPase activity of purified pig brain PMCA reconstituted in PC, sorcin 12.5-50 nM in the assay medium, with Ca2+: fold activation of 1.8 fold and a Ca2+-ATPase activity of purified pig brain PMCA reconstituted in PC: EC50 of activation by sorcin (in the assay medium) of 12.5 nM.
